According to patent US20220235380:

Target: ALPG/P priming receptor encoded by the LG1 + FAS/PTPN2 shRNA circuits AB-1013, AB-1014 and AB-1015
Sequence (chain, as listed by the source): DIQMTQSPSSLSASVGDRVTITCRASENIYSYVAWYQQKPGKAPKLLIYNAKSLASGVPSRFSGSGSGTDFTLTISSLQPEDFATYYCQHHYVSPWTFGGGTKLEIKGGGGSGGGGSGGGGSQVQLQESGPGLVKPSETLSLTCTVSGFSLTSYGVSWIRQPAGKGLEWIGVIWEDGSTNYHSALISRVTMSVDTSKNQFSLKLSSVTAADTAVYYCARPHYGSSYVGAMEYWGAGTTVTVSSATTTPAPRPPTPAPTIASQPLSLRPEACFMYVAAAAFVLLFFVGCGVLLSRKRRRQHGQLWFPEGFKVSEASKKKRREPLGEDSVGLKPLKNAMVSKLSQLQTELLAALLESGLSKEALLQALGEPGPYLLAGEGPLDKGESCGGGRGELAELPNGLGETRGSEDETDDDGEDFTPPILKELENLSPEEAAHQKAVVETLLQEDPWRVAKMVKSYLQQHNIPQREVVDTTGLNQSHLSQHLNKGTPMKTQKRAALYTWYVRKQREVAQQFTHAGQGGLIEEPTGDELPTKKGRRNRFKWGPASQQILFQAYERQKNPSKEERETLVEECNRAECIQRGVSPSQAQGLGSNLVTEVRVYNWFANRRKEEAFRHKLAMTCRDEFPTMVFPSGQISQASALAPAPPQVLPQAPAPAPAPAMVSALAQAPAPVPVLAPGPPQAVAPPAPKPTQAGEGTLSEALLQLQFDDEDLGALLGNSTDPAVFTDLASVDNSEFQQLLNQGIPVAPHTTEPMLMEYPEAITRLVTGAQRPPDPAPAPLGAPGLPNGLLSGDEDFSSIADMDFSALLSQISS

B1: Alkaline Phosphatase, Germ Cell (ALPG), expressed on engineered K562 cells (protein)
chain: IIPVEEENPDFWNRQAAEALGAAKKLQPAQTAAKNLIIFLGDGMGVSTVTAARILKGQKKDKLGPETFLAMDRFPYVALSKTYSVDKHVPDSGATATAYLCGVKGNFQTIGLSAAARFNQCNTTRGNEVISVMNRAKKAGKSVGVVTTTRVQHASPAGAYAHTVNRNWYSDADVPASARQEGCQDIATQLISNMDIDVILGGGRKYMFPMGTPDPEYPDDYSQGGTRLDGKNLVQEWLAKHQGARYVWNRTELLQASLDPSVTHLMGLFEPGDMKYEIHRDSTLDPSLMEMTEAALLLLSRNPRGFFLFVEGGRIDHGHHESRAYRALTETIMFDDAIERAGQLTSEEDTLSLVTADHSHVFSFGGYPLRGSSIFGLAPGKARDRKAYTVLLYGNGPGYVLKDGARPDVTESESGSPEYRQQSAVPLDGETHAGEDVAVFARGPQAHLVHGVQEQTFIAHVMAFAACLEPYTACDLAPRAGTTD
% CAR Conversion, time to peak: reached a peak after around 100 hours of stimulation with the PrimeR antigen
